The target in this assay is T1, PLCβ3 ΔXY1 (Homo sapiens, UniProt Q01970 10-1234, ΔXY1 (residues 471–569)).
T1 sequence (looked up): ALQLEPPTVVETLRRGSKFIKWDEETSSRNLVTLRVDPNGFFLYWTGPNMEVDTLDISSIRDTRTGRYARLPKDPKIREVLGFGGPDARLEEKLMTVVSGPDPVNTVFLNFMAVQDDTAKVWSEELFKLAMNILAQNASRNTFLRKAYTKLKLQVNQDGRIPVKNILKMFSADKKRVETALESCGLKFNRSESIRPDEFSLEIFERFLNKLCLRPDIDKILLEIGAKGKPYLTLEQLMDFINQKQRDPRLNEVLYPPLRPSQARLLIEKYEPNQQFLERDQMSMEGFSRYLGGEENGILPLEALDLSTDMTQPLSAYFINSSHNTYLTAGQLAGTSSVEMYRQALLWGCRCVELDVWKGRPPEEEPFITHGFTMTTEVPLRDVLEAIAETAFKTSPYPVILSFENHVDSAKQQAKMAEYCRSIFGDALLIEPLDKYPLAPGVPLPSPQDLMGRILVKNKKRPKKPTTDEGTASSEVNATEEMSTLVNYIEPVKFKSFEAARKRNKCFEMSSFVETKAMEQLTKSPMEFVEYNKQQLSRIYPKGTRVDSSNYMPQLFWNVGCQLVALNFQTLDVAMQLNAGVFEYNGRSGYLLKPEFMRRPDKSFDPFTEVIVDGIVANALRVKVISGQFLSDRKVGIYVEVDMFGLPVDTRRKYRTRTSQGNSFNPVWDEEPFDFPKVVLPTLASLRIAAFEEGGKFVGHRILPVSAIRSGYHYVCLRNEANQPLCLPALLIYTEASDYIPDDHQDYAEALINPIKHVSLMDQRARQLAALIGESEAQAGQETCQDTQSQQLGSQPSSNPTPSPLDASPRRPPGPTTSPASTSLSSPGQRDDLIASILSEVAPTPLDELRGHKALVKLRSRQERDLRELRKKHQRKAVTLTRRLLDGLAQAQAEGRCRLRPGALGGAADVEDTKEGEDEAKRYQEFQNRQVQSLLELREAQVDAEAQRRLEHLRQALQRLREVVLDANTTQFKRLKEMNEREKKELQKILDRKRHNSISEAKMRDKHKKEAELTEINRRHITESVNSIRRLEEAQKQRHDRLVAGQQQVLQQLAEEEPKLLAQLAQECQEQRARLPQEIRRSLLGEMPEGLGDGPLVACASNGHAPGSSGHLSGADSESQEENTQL
Put plainly: cell-based or functional assay.

B1: Activated Gαq (Gαq·GDP-ALF4^−) (natural protein, murine, UniProt P21279 7-359, looked up)
chain: MACCLSEEAKEARRINDEIERQLRRDKRDARRELKLLLLGTGESGKSTFIKQMRIIHGSGYSDEDKRGFTKLVYQNIFTAMQAMIRAMDTLKIPYKYEHNKAHAQLVREVDVEKVSAFENPYVDAIKSLWNDPGIQECYDRRREYQLSDSTKYYLNDLDRVADPSYLPTQQDVLRVRVPTTGIIEYPFDLQSVIFRMVDVGGQRSERRKWIHCFENVTSIMFLVALSEYDQVLVESDNENRMEESKALFRTIITYPWFQNSSVILFLNKKDLLEEKIMYSHLVDYFPEYDGPQRDAQAAREFILKMFVDLNPDSDKIIYSHFTCATDTENIRFVFAAVKDTILQLNLKEYNLV
For the molecule B1, the “x-fold maximum activity over basal (complex against the PLCβ3 variant alone)” value amounted to 4 x-fold.

For the origin of these results see PMC7885793 (Biochemistry, 2019).
